In patent US20080194027, “Compositions, methods and kits based on small nuclear RNAs” (Trustees of the University of Pennsylvania, published 2008):

What was measured:
[1] = biological target: T1, snRNP total proteins (TPs; seven Sm proteins plus U1 snRNP proteins) (Homo sapiens, UniProt P14678;P62314;P62316;P62318;P62304;P62306;P62308;P08621;P09012;P09234 …); assay: pulldown; Sm core assembly, Y12 IP; conditions: tags: anti-TMG immunopurified from HeLa; label: 32P-UTP
[2] = biological target: T1, snRNP total proteins (TPs; seven Sm …); assay: pulldown; Y12 IP; phosphorothioate interference at U92, C86, G109, none in Sm site; conditions: tags: anti-TMG immunopurified from HeLa; label: 32P-UTP

| Binder | binding result [1] | binding result [2] |
| --- | --- | --- |
| ACUUUUG (ssRNA, [none]) [HSUR5-60 Sm U1C] | binds | – |
| AUCUUUG (ssRNA, [none]) [HSUR5-60 Sm U2C] | binds | – |
| AUUUCUG (ssRNA, [none]) [HSUR5-60 Sm U4C] | binds | – |
| AUUCUUG (ssRNA, [none]) [HSUR5-60 Sm U3C] | binds | – |
| AUUUUUG (ssRNA) [HSUR5-60 (nt 60-114)] | – | binds |
